# Source: patent US20120014941A1 (Hoffmann-La Roche, published 2012)
# Substitutions are numbered along the chain they refer to. Names may count otherwise. Read-outs that look alike come from different tables or passages of the source.
# T1: recombinant human Bv8 (PeproTech) (human, UniProt Q9HC23-2 28-108, biotinylated (Sulfo-NHS-LC-biotin) in the two competition ELISAs with coated antibody)
# T1 construct: Bought protein; also called HuBv8; prokineticin-2
# T1 sequence (looked up): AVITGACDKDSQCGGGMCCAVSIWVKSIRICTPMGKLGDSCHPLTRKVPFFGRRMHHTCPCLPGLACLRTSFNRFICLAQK
# B1: h2G9.K4G1.Polish IgG (antibody, V domains shown)
# VH: EVQLVQSGAEVKKPGASVKVSCKASGYSFTDYDMHWVRQAPGQGLEWIGYISSYSGATTYNQKFKGRVTITVDKSTSTAYLELSSLRSEDTAVYYCARDSNYGEAYAMDYWGQGTLVTVSS
# VL: DIVMTQSPDSLAVSLGERATINCKASQSVDYSGDSYMNWYQQKPGQPPKLLIYAASNLESGVPDRFSGSGSGTDFTLTISSLQAEDVAVYYCQQINEDPFTFGQGTKVEIK
# notes: IgG; constant regions not described for the humanized antibodies; also called parental polished K4G1 molecule
# B2: h2G9.K4G1.v55 Fab (Fab, V domains shown)
# VH: B1 VH
# VL: DIVMTQSPDSLAVSLGERATINCKASQSLDYYHYSYMNWYQQKPGQPPKLLIYAASNRESGVPDRFSGSGSGTDFTLTISSLQAEDVAVYYCQQINEDPFTFGQGTKVEIKR
# notes: Variable domains only; claims 8 and 9)
# B3: h2G9.K4G1.v19 Fab (Fab, V domains shown)
# VH: B1 VH with F29L, D31N, S52H, A57S, T59L
# VL: B2 VL with L29V, Y32S, H33G, Y34D, R58L
# notes: Variable domains only; claims 6 and 7)
# B4: h2G9.K4G1.v19 IgG (antibody, V domains shown)
# VH: B1 VH with F29L, D31N, S52H, A57S, T59L
# VL: B2 VL with L29V, Y32S, H33G, Y34D, R58L
# notes: Variable domains only; IgG, constant regions not described; claims 6 and 7); also called humanized 2G9 variant 19
# B5: h2G9.K4G1.v55 IgG (antibody, V domains shown)
# VH: B1 VH
# VL: B2 VL
# notes: Variable domains only; IgG, constant regions not described; claims 8 and 9); also called humanized 2G9 variant 55
# B6: h2G9.K4G1 (antibody, V domains shown)
# VH: B1 VH with S53C, S55N, S100G
# VL: B1 VL with S32D
# notes: also called h2G9.K4G1 anti-Bv8 antibody
# B7: h2G9.K4G1 variant CDR-L1 G29S (Fab, V domains shown)
# VH: B1 VH with S53C, S55N, S100G
# VL: B1 VL with S32D, G33S
# B8: h2G9.K4G1.Polish Fab (Fab, V domains shown)
# VH: B1 VH
# VL: B1 VL
# notes: also called polished K4G1
# Tests used:
# [1] = target: Cynomologus Monkey Bv8 (Genentech; PUR21590) (cynomolgus monkey); test: SPR (BIAcore 3000, 25 C): cynomolgus monkey Bv8 coupled to CM5 chip, IgG injected; 1:1 Langmuir fit
# [2] = target: T1, recombinant human Bv8 (PeproTech); test: SPR (BIAcore 3000, 25 C): human Bv8 coupled to CM5 chip, IgG injected; 1:1 Langmuir fit
# Description: (§1) For binding affinity determinations of anti-Bv8 antibodies (Fab or IgG), Surface Plasmon Resonance (SRP) measurement with a BIAcore™-3000 instrument was used. Briefly, CM5 biosensor chip was activated with EDC and NHS reagents according to the supplier's instructions, and human Bv8 (PeproTech) or Cynomologus Monkey (Genentech; PUR21590) was coupled to achieve approximately 150 response units (RU), then following by blocking un-reacted groups with 1M ethanolamine. For kinetics measurements, two-fold serial dilutions of anti-Bv8 Fabs (0.19 nM to 25 nM) or IgGs (0.019 nM to 10 nM) were injected in HBS-P buffer (0.01M HEPES pH 7.4, 0.15M NaCl, 0.005% surfactant P20) at 25° C. with a flow rate of 30 μl/min. Association rates (kₒₙ) and dissociation rates (koff) were calculated using a simple one-to-one Langmuir binding model (BIAcore Evaluation Software version 3.2). The equilibrium dissociation constant (Kd) was calculated as the ratio koff/kₒₙ.
# [3] = target: T1, recombinant human Bv8 (PeproTech); test: competitive ELISA: antibody in serial dilution mixed with biotinylated human Bv8 (57 pM) and put on plate coated with mouse 2G9 IgG1 (m5, the competitor); streptavidin-HRP, OD 450/620; four-parameter fit
# Method: Maxisorp 384 well plates were coated with 1 μg/ml parent mouse 2G9 IgG1 antibody at 25 μl/well in 50 mM sodium carbonate buffer, pH 9.6, at 4° C. overnight. Plates were washed with phosphate buffered saline (PBS) containing 0.05% polysorbate, pH 7.4 and blocked with PBS containing 0.5% BSA, 10 ppm Proclin, pH 7.4, at 80 μL1/well. After one-hour incubation at room temperature, plates were washed. A mixture of serially diluted humanized 2G9 antibodies (0.11 pM-180 nM) in PBS containing 0.5% BSA, 0.05% polysorbate 20, pH 7.4 and biotinylated human Bv8 (final concentration 0.5 ng/ml or 57 pM) were added at 25 μL1/well. After two hour incubation, plates were washed and horseradish peroxidase conjugated streptavidin (GE Healthcare) was added. After a final 30 minute incubation, plates were washed and the substrate 3,3′,5,5′-tetramethyl benzidine (Kirkegaard & Perry Laboratories) was added. The reaction was stopped by adding 1 M phosphoric acid and absorbance was read at 450 nm on a Multiskan Ascent reader (Thermo Scientific, Hudson, N.H.). For data analysis, the titration curves were fitted using a four-parameter nonlinear regression curve-fitting program and the IC₅₀ concentrations were determined (KaleidaGraph, Synergy Software, Reading, Pa.).
# [4] = target: Cynomologus Monkey Bv8 (Genentech; PUR21590) (cynomolgus monkey); test: SPR (BIAcore 3000, 25 C): cynomolgus monkey Bv8 coupled to CM5 chip, Fab injected; 1:1 Langmuir fit
# [5] = target: T1, recombinant human Bv8 (PeproTech); test: SPR (BIAcore 3000, 25 C): human Bv8 coupled to CM5 chip, Fab injected; 1:1 Langmuir fit
# Description: as §1
# [6] = target: T1, recombinant human Bv8 (PeproTech); test: SPR (BIAcore 3000, 25 C): human Bv8 coupled to CM5 chip, Fab injected; 1:1 Langmuir fit; N=3
# Description: as §1
# [7] = target: T1, recombinant human Bv8 (PeproTech); test: phage competition ELISA: Fab-displaying phage preincubated with serially diluted soluble human Bv8 (the concentration on the axis), unbound phage captured on plate-coated human Bv8, anti-M13-HRP; bound phage in %
# Method: (§2) MAXISORP™ microtiter plates were coated with recombinant human Bv8 (PeproTech) at 2 μg/ml in PBS overnight and then blocked with PBST buffer (0.5% BSA and 0.05% Tween 20 in PBS) for an hour at room temperature (RT). Phage from culture supernatants were incubated with serially diluted human Bv8 in PBST buffer in a tissue-culture microtiter plate for an hour at RT, after which 80 μl of the mixture was transferred to the target-coated wells for 15 minutes to capture unbound phage. The plate was washed with PBT buffer (0.05% Tween 20 in PBS), and HRP-conjugated anti-M13 (Amersham Pharmacia Biotech) was added (1:5000 in PBST buffer) for 40 minutes. The plate was washed with PBT buffer and developed by adding tetramethylbenzidine substrate (Kirkegaard and Perry Laboratories, Gaithersburg, Md.). The absorbance at 450 nm was plotted as a function of target concentration in solution to determine phage IC₅₀.
# [8] = target: T1, recombinant human Bv8 (PeproTech); test: as above; remark: listed apart in the source
# Method: as §2
# [9] = target: Cynomologus Monkey Bv8 (Genentech; PUR21590) (cynomolgus monkey); test: SPR, BIAcore-3000, Bv8 coupled to CM5 chip, IgG (FIG. 21)
# [10] = target: T1, recombinant human Bv8 (PeproTech); test: as above
# Description: as §1
# [11] = target: T1, recombinant human Bv8 (PeproTech); test: SPR (BIAcore 3000, 25 C): human Bv8 coupled to CM5 chip, IgG injected; 1:1 Langmuir fit; remark: listed apart in the source
# Description: as §1
# [12] = target: Cynomologus Monkey Bv8 (Genentech; PUR21590) (cynomolgus monkey); test: SPR (BIAcore 3000, 25 C): cynomolgus monkey Bv8 coupled to CM5 chip, IgG injected; 1:1 Langmuir fit; off-rate followed for 30 min
# [13] = target: T1, recombinant human Bv8 (PeproTech); test: SPR (BIAcore 3000, 25 C): human Bv8 coupled to CM5 chip, IgG injected; 1:1 Langmuir fit; off-rate followed for 30 min
# Description: as §1
# [14] = target: T1, recombinant human Bv8 (PeproTech); test: as above; remark: listed apart in the source
# Description: as §1
# [15] = target: Cynomologus Monkey Bv8 (Genentech; PUR21590) (cynomolgus monkey); test: SPR (BIAcore 3000, 25 C): cynomolgus monkey Bv8 coupled to CM5 chip, IgG injected; 1:1 Langmuir fit; remark: listed apart in the source
binder,measurement,setting,value
B1,Kd,[1],0.03 nM
same,koff,[1],1.5e-05 s⁻¹
same,kon,[1],454000 M⁻¹ s⁻¹
same,Kd,[2],0.02 nM
same,koff,[2],1.2e-05 s⁻¹
same,kon,[2],528000 M⁻¹ s⁻¹
same,IC50,[3],0.084 nM
B2,Kd,[4],0.42 nM
same,koff,[4],0.000129 s⁻¹
same,kon,[4],310000 M⁻¹ s⁻¹
same,Kd,[5],0.18 nM
same,koff,[5],7.2e-05 s⁻¹
same,kon,[5],396000 M⁻¹ s⁻¹
same,Kd,[6],0.28 nM
same,koff,[6],0.000136 s⁻¹
same,kon,[6],484000 M⁻¹ s⁻¹
same,IC50 (read off the curve),[7],~0.06 nM
B3,Kd,[4],0.1 nM
same,koff,[4],2.8e-05 s⁻¹
same,kon,[4],267000 M⁻¹ s⁻¹
same,Kd,[5],0.04 nM
same,koff,[5],1.6e-05 s⁻¹
same,kon,[5],359000 M⁻¹ s⁻¹
same,Kd,[6],0.08 nM
same,koff,[6],3.8e-05 s⁻¹
same,kon,[6],471000 M⁻¹ s⁻¹
same,IC50 (read off the curve),[8],~0.09 nM
B4,fold tighter binding than chimeric 2G9,[9],> 2 fold
same,fold tighter binding than chimeric 2G9,[10],≥ 2 fold
same,kon,[1],501000 M⁻¹ s⁻¹
same,kon,[11],760000 M⁻¹ s⁻¹
same,kon,[2],760000 M⁻¹ s⁻¹
same,Kd,[12],< 0.009 nM
same,koff,[12],< 5e-06 s⁻¹
same,Kd,[13],≤ 0.007 nM
same,koff,[13],≤ 5e-06 s⁻¹
same,Kd,[14],≤ 0.007 nM
same,koff,[14],≤ 5e-06 s⁻¹
same,IC50,[3],0.014 nM
B5,fold tighter binding than chimeric 2G9,[9],> 2 fold
same,fold tighter binding than chimeric 2G9,[10],≥ 2 fold
same,kon,[15],780000 M⁻¹ s⁻¹
same,kon,[1],775000 M⁻¹ s⁻¹
same,kon,[11],950000 M⁻¹ s⁻¹
same,kon,[2],945000 M⁻¹ s⁻¹
same,Kd,[12],< 0.006 nM
same,koff,[12],< 5e-06 s⁻¹
same,Kd,[13],≤ 0.005 nM
same,koff,[13],≤ 5e-06 s⁻¹
same,Kd,[14],≤ 0.005 nM
same,koff,[14],≤ 5e-06 s⁻¹
same,IC50,[3],0.013 nM
B6,IC50,[3],0.984 nM
B7,IC50 (read off the curve),[7],~1 nM
B8,Kd,[6],1.44 nM
same,koff,[6],0.000689 s⁻¹
same,kon,[6],475000 M⁻¹ s⁻¹
same,IC50 (read off the curve),[8],~0.2 nM
same,IC50 (read off the curve),[7],~0.2 nM
